Reference: patent US20240124586A1 (WUXI BIOLOGICS IRELAND, published 2024)
Like-named read-outs stand apart in the source and are kept apart here.

How the values were obtained:
[1] = biological target: T1, human CD3 on CD3+ Jurkat cells (human, UniProt P07766 23-207; P09693 23-182; P04234 22-171); assay: flow cytometry on Jurkat cells
T1 construct: whole, on cells; also called CD3 positive Jurkat cells

[2] = biological target: T2, human CD19 on CD19+ B cell lines (Ramos, Raji) (human, UniProt P15391 20-556); assay: FACS on CD19+ Ramos cells
T2 construct: whole, on cells; also called CD19+ Ramos cells; CD19+ Raji cells
T2 sequence (looked up): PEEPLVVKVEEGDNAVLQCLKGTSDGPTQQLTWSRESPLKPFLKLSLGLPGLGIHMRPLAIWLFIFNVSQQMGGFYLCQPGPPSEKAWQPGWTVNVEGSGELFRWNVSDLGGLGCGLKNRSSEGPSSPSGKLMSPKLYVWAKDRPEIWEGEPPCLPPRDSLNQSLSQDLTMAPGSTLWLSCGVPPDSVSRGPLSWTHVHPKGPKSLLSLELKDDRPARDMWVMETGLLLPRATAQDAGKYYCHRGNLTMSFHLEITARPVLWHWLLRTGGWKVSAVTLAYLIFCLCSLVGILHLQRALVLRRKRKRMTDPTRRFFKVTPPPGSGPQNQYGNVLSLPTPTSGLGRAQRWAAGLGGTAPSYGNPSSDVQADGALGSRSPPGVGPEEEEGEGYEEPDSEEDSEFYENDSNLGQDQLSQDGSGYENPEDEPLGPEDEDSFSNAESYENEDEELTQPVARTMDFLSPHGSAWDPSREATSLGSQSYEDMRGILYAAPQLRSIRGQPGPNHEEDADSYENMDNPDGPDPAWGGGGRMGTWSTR

[3] = biological target: T2, human CD19 on CD19+ B cell lines …; assay: flow cytometry on Ramos cells
[4] = biological target: T2, human CD19 on CD19+ B cell lines …; assay: cell-based or functional assay
[5] = biological target: T1, human CD3 on CD3+ Jurkat cells; assay: FACS on CD3+ Jurkat cells
[6] = biological target: T1, human CD3 on CD3+ Jurkat cells; assay: FACS on CD3+ Jurkat cells; remark: listed apart in the source
[7] = biological target: T1, human CD3 on CD3+ Jurkat cells; assay: FACS on CD3+ Jurkat cells; remark: listed apart in the source
[8] = biological target: T3, biotinylated human CTLA-4.ECD.hFc (W316-hPro1.ECD.hFc.Biotin) (human, UniProt P16410 36-161, biotin-labelled (site not stated)); assay: FACS competition: blocks biotinylated human CTLA-4.ECD.hFc binding to human CD80 engineered cells
T3 construct: extracellular domain; In-house protein; also called hCTLA-4.ECD.hFc-Biotin; human CTLA-4 protein
Procedure: (§1) Competitive FACS was used to test whether the antibodies could block human or cynomolgus CTLA-4 binding to hCD80 on cell surface. […] Then the mixtures of antibody and CTLA-4 were added to the cells and incubated for 1 hour at 4° C. The cells were washed two times with 200 μl FACS washing buffer (DPBS containing 1% BSA). Streptavidin PE (BD Pharmingen-554061) 1 to 600 diluted in FACS buffer was added to the cells and incubated at 4° C. for 1 hour. Additional washing steps were performed two times with 200 μL FACS washing buffer followed by centrifugation at 1500 rpm for 4 minutes at 4° C. Finally, the cells were resuspended in 100 μL FACS washing buffer and fluorescence values were measured by flow cytometry and analyzed by FlowJo.

[9] = biological target: cynomolgus CTLA-4 protein (cynomolgus, UniProt G7PL88 36-161, Probably biotinylated for streptavidin-PE detection, as described for the human CTLA-4 reagent in paragraph 775; the letters cannot carry this.); assay: FACS competition: blocks cynomolgus CTLA-4 protein binding to human CD80 engineered cells
Procedure: as §1

[10] = biological target: T4, cynomolgus CTLA-4 on engineered 293F cells (W316-293F.cynoPro1.F1.Pool) (cynomolgus); assay: FACS binding to cynomolgus CTLA-4 engineered cells
T4 construct: whole, on cells; also called cynomolgus CTLA-4 engineered cells
Procedure: 4-fold titrated Abs with 1% BSA DPBS from 40 μg/ml to 0.00004 μg/ml were added to the cells. Plates were incubated at 4° C. for 1 hour. After wash, […] 1:150 diluted PE-labeled goat anti-human antibody (Jackson 109-115-098) was added to each well and the plates were incubated at 4° C. for 1 hour. The binding of the antibodies onto the cells was tested by flow cytometry and the mean fluorescence intensity (MFI) was analyzed by FlowJo.

[11] = biological target: T2, human CD19 on CD19+ B cell lines …; assay: FACS on CD19+ Ramos cells; remark: listed apart in the source

T1 sequence (P07766 23-207, chain 1 of 3): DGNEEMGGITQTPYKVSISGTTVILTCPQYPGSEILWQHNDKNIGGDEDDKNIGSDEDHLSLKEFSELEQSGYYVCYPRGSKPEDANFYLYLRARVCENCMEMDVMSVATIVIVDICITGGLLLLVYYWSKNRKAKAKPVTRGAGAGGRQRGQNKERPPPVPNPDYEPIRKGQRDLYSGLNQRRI
T1 sequence (P09693 23-182, chain 2 of 3): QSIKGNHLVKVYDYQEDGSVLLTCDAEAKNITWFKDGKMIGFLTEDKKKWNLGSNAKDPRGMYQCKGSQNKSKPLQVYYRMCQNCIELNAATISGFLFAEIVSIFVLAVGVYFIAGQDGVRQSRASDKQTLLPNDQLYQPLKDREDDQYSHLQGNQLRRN
T1 sequence (P04234 22-171, chain 3 of 3): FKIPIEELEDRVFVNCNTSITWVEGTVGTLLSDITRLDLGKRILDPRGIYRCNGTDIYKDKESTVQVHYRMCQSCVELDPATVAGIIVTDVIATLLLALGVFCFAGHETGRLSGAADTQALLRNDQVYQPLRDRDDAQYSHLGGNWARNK
T3 sequence (P16410 36-161): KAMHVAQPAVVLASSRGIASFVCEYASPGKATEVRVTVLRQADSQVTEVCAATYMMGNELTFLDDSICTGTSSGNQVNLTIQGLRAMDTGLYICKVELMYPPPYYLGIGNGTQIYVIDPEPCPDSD
Sequence of cynomolgus CTLA-4 protein (G7PL88 entry or part of it limits assumed): as the sequence (P16410 36-161) above, with S14N, I18T, L106M counted along it

B1: W3438-T3U4.F16-1.uIgG4.SP, bispecific trivalent anti-CD3 x CD19 (bispecific antibody)
heavy 1: QVQLVQSGAEVKKPGSSVKVSCKASGFAFTDYYIHWVRQAPGQGLEWMGWISPGNVNTKYNENFKGRVTITADKSTSTAYMELSSLRSEDTAVYYCARDGYSLYYFDYWGQGTLVTVLEDLKNVFPPEVAVFEPSEAEISHTQKATLVCLATGFYPDHVELSWWVNGKEVHSGVCTDPQPLKEQPALQDSRYALSSRLRVSATFWQNPRNHFRCQVQFYGLSENDEWTQDRAKPVTQIVSAEAWGRYGPPCPPCPAPEFLGGPSVFLFPPKPKDTLMISRTPEVTCVVVDVSQEDPEVQFNWYVDGVEVHNAKTKPREEQFNSTYRVVSVLTVLHQDWLNGKEYKCKVSNKGLPSSIEKTISKAKGQPREPQVYTLPPCQEEMTKNQVSLWCLVKGFYPSDIAVEWESNGQPENNYKTTPPVLDSDGSFFLYSRLTVDKSRWQEGNVFSCSVMHEALHNHYTQKSLSLSLGK
light 1: DIVMTQSPDSLAVSLGERATINCKSSQSLLNSRTRKNYLAWYQQKPGQPPKLLIYWASTRQSGVPDRFSGSGSGTDFTLTISSLQAEDVAVYYCTQSHTLRTFGGGTKVEIKPDIQNPDPAVYQLRDSKSSDKSVCLFTDFDSQTQVSQSKDSDVYITDKCVLDMRSMDFKSNSAVAWSQKSDFACANAFQNSIIPEDTFFPSPESS
heavy 2: QMQLVQSGPEVKKPGTSVKVSCKASGYAFTSYNMYWVRQARGQRLEWIGYIDPYNGDTTYNQKFKGRVTITRDMSTSTAYMELSSLRSEDTAVYYCLTTAYAMDYWGQGTLVTVSSASTKGPSVFPLAPCSRSTSESTAALGCLVKDYFPEPVTVSWNSGALTSGVHTFPAVLQSSGLYSLSSVVTVPSSSLGTKTYTCNVDHKPSNTKVDKRVGGGGSGGGGSQMQLVQSGPEVKKPGTSVKVSCKASGYAFTSYNMYWVRQARGQRLEWIGYIDPYNGDTTYNQKFKGRVTITRDMSTSTAYMELSSLRSEDTAVYYCLTTAYAMDYWGQGTLVTVSSASTKGPSVFPLAPCSRSTSESTAALGCLVKDYFPEPVTVSWNSGALTSGVHTFPAVLQSSGLYSLSSVVTVPSSSLGTKTYTCNVDHKPSNTKVDKRVESKYGPPCPPCPAPEFLGGPSVFLFPPKPKDTLMISRTPEVTCVVVDVSQEDPEVQFNWYVDGVEVHNAKTKPREEQFNSTYRVVSVLTVLHQDWLNGKEYKCKVSNKGLPSSIEKTISKAKGQPREPQVCTLPPSQEEMTKNQVSLSCAVKGFYPSDIAVEWESNGQPENNYKTTPPVLDSDGSFFLVSRLTVDKSRWQEGNVFSCSVMHEALHNHYTQKSLSLSLGK
light 2: DIQLTQSPSFLSASVGDRVTITCSASSTVNYMHWYQQKPGKAPKLLIYSTSNLASGVPSRFSGSGSGTEFTLTISSLQPEDFATYYCHQWSSYPYTFGQGTKLEIKRTVAAPSVFIFPPSDEQLKSGTASVVCLLNNFYPREAKVQWKVDNALQSGNSQESVTEQDSKDSTYSLSSTLTLSKADYEKHKVYACEVTHQGLSSPVTKSFNRGEC
notes: also called F16-Design_2-QQQQ (IgG4)
Question: How did the EC50 [1] turn out when B1 was run?
Answer: 19300 pM

Question: What about the “EC50 (read off the curve)” value [2] of the same binder?
Answer: 1000 to 2000 pM

Question: What about the EC50 [3] of the same binder?
Answer: 1800 pM

Question: And the “EC50 of T-cell engaged malignant B cell killing” value [4]?
Answer: 5.5 pM

Question: What about the “EC50 of cell lysis, CD8+ T cells and Raji cells, 4 hours” value [4] of the same binder?
Answer: 3200 pM

B2: anti-CD3 antibody T3 (wild type, IgG1) (antibody, V domains shown)
VH: QVQLVQSGAEVKKPGSSVKVSCKASGFAFTDYYIHWVRQAPGQGLEWMGWISPGNVNTKYNENFKGRVTITADKSTSTAYMELSSLRSEDTAVYYCARDGYSLYYFDYWGQGTLVTVSS
VL: DIVMTQSPDSLAVSLGERATINCKSSQSLLNSRTRKNYLAWYQQKPGQPPKLLIYWASTRQSGVPDRFSGSGSGTDFTLTISSLQAEDVAVYYCTQSHTLRTFGGGTKVEIK
notes: Human IgG1; also called T3-IgG1; native antibody T3
Question: B2 was tested. Which “EC50 (read off the curve)” value [5] did it give?
Answer: ~200 pM

Question: And the “EC50 (read off the curve)” value [6]?
Answer: ~200 pM

B3: T3-IgG4 (antibody, V domains shown)
VH: B2 VH
VL: B2 VL
notes: m1 is the IgG1 form of the same antibody; also called wild type anti-CD3 antibody T3 in IgG4 format
Question: How did the “EC50 (read off the curve)” value [7] turn out when B3 was run?
Answer: ~50 pM

B4: W3162_1.154.8-z35-IgG1K (antibody, V domains shown)
VH: QVQLVQSGAEVKKPGSSVKVSCKASGYTFTNYFMNWVRQAPGQGLEWMGRVDPEQGRADYAEKFKKRVTITADKSTSTAYMELSSLRSEDTAVYYCARRAMDNYGFAYWGQGTLVTVSS
VL: EIVLTQSPDFQSVTPKEKVTITCSANSALSYMYWYQQKPDQSPKLWVHGTSNLASGVPSRFSGSGSGTDFTLTINSLEAEDAATYYCHHWSNTQWTFGGGTKVEIK
notes: anti-CTLA-4 antibody, parent of the T5 arm; also called W3162_1.154.8-z35 (named T5)
Question: For B4, which IC50 [8] is on record?
Answer: 594 pM

Question: And the IC50 [9]?
Answer: 1470 pM

Question: And the EC50 [10]?
Answer: 699 pM

Question: And the “Top(MFI)” value [10]?
Answer: 10800 MFI

B5: anti-CD19 antibody U4 (wild type) (antibody, V domains shown)
VH: QMQLVQSGPEVKKPGTSVKVSCKASGYAFTSYNMYWVRQARGQRLEWIGYIDPYNGDTTYNQKFKGRVTITRDMSTSTAYMELSSLRSEDTAVYYCLTTAYAMDYWGQGTLVTVSS
VL: DIQLTQSPSFLSASVGDRVTITCSASSTVNYMHWYQQKPGKAPKLLIYSTSNLASGVPSRFSGSGSGTEFTLTISSLQPEDFATYYCHQWSSYPYTFGQGTKLEIKR
notes: also called native U4; wild type antibody U4
Question: How did the “EC50 (read off the curve)” value [2] turn out when B5 was run?
Answer: ~300 pM

Question: And the “EC50 (read off the curve)” value [11]?
Answer: ~500 pM
